# Test results as given in patent US20260035452A1 (THE UNIVERSITY OF BIRMINGHAM, priority 2022, published 2026).
# Tests used:
# [1] = system: Human dermal blood endothelial cells (HDBEC); experiment: HDBEC stimulation (flow cytometry, IL-6 Elisa); type: cell-based; conditions: 100 ng/ml in combination with TNF-α (100 U/ml), 24 h
# Protocol: FIG. 10: Human dermal blood endothelial cells (HDBEC) were treated with: IL-17 vehicle (Ctrl), IL-17 or FM-0410 (100 ng/ml), alone or in combination with TNF-α (100 U/ml) for 24 h. Cells were washed, gated in their totality and singlet before the identification of IL-17Rs (RA and RC) (A, B), ICAM (C) and VCAM (D) expression. Histogram values (expressed as MIF) indicate the total positive cells (A-D). In (E) are shown phase-contrast micrographs of confluent monolayers of untreated or treated (as reported before) HDBEC. Total adhesion (expressed as INT/mm^2, F) and % of transmigration (G) are calculated with Image Pro programme (DataCell, Finchampstead). Inflammatory supernatants from all experimental conditions were assayed by Elisa for IL-6 (H) expressed in pg/ml. Data were presented as means±S.D. of n=3 healthy donors. Statistical analysis was conducted by one-way ANOVA followed by Bonferroni's for multiple comparisons. ^#P≤0.05, ^##P≤0.01, ^###P≤0.001, ^####P≤0.0001 vs Ctrl group; *P≤0.05 vs TNF-α+IL-17 group; ^∘P≤0.05, ^∘∘∘P≤0.001, ^∘∘∘∘P≤0.0001 vs TNF-α group.
# Human dermal blood endothelial cells (HDBEC): Primary human dermal blood endothelial cells (HDBECs) were purchased from PromoCell and cultured in the manufacturer's recommended endothelial cell growth medium MV (PromoCell, Heidelberg, Germany). HDBECs were seeded onto 12-well tissue culture plates after 4 passages at a seeding density yielding confluent monolayers. HDBEC monolayers were washed in endothelial cell growth medium MV warmed to 37° C. and stimulated with IL-17 or FM-0410 (100 ng/ml) alone or in a combination with TNF-α (100 U/ml) for 24 h at 37° C. Cells were stimulated for 24 h, before staining with IL-17Rs (RA or RC) or ICAM/VCAM adhesion receptors using a Flow cytometry assay. Supernatants were collected and measured to evaluate IL-6 or TNF-α levels.
# Flow Cytometry: HDBEC, collected after 24 h of treatment, were washed with PBS without Ca^2+ and Mg^2+ containing 25 mM lactose for 20 min at room temperature with occasional mixing. […] Protein expression was analysed by flow cytometry on a Dako CyAn (Beckman Coulter, High Wycombe, U.K.), and data were analysed using MRFIow and FlowJo software operation. The unspecific binding of antibodies was quantified by using corresponding isotype controls.
# Elisa assay: The levels of IL-6 at 24 h were measured using commercially available enzyme-linked immunosorbent assay kits (ELISA kit, R&D System, Milan, Italy) according to the manufacturer's instructions. […] The addition of 100 μl of the substrate and stop solution represented the last steps before the reading of absorbance (measured at 450 nm) on a microplate reader. Antigen levels in the samples were determined using a standard curve and expressed as pg/ml.
# [2] = biological target: IL-17RA (Homo sapiens, UniProt Q96F46); conditions: cited from earlier work
# [3] = system: dorsal air pouch of mice; conditions: single administration 1 μg/pouch into 6-day old air pouch; previous studies; cited from earlier work
molecule,measurement,setting,value
"IL-17: recombinant mouse IL-17 purchased from R&D System; full-length cytokine used as comparator and stimulus (protein, UniProt Q62386 26-158, looked up) Interleukin-17A: AAIIPQSSACPNTEAKDFLQNVKVNLKVFNSLGAKVSSRRPSDYLNRSTSPWTLHRNEDPDRYPSVIWEAQCRHQRCVNAEGKLDHHMNSVLIQQEILVLKREPESCPFTFRVEKMLVGVGCTCVASIVRQAA",ICAM expression,[1],upregulation
same,IL-17RA receptor expression,[1],No effects
same,IL-17RC receptor expression,[1],No effects
same,VCAM expression,[1],upregulation
same,affinity of IL-17RA for IL-17A compared to IL-17F,[2],~100 fold
same,time of peak of leukocyte infiltration,[3],24 h
